Where two headings read alike, the source gives them in different places.
Molecular target: T1, natriuretic peptide receptor on C3H10T1/2 cells (Mus musculus, UniProt Q6VVW5)
T1 construct: endogenous in cells; host or cells: C3H10T1/2 cells
T1 sequence (Q6VVW5 23-1047 limits assumed): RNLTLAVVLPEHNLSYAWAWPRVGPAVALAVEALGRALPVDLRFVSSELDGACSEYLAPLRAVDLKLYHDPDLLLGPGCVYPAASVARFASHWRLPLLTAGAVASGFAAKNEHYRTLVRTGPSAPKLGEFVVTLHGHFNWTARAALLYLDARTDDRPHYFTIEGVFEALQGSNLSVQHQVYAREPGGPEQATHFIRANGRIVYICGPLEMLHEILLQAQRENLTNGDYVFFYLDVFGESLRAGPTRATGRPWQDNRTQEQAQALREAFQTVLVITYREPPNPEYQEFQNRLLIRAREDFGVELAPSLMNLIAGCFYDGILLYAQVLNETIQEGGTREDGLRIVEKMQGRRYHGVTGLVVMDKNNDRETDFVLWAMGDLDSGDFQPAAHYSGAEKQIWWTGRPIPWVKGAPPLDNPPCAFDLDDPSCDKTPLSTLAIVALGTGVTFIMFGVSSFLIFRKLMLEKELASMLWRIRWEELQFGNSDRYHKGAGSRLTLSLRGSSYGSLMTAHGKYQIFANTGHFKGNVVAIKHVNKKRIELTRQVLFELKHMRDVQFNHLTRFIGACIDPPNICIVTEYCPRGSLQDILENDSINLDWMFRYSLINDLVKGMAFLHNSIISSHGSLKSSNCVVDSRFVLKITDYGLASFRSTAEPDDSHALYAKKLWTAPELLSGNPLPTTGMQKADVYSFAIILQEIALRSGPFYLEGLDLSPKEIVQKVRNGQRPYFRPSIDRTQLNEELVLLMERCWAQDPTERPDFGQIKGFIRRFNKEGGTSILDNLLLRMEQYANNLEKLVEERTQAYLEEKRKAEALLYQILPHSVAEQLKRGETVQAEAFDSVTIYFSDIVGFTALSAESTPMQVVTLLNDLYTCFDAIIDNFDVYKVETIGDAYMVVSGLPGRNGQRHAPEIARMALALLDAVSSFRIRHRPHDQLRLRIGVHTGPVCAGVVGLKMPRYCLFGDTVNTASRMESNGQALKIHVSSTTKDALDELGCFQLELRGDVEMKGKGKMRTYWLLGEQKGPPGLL
Assay: Biotrak enzyme immunoassay of cGMP elicited on C3H10T1/2 cells
Format: cell-based
Procedure: All peptide variants were analyzed for activity using the Biotrak enzyme immunoassay (EIA, Amersham) that measures the amount of secondary messenger, cyclic GMP (cGMP), elicited after activation of the natriuretic peptide receptor by the peptide on C3H10T1/2 cells. Amino acid substitutions are marked in bold and underlined. The assay was performed for CNP and variants at a concentration of 10^−6 M. The values are given as the percent of relative binding compared to CNP, where CNP 1-22 and CNP 5-22 yield 100% binding.

[1] = Table 3, cGMP values at 10^-6 M, compared to CNP (CNP 1-22 and CNP 5-22 = 100%)
[2] = Table 2, cGMP assay, compared to CNP

Sequence | cGMP response as percent of CNP [1] [%] | cGMP response as percent of CNP [2] [%] | also measured
C F G V K L D R I G S M S G L G C (CFGVKLDRIGSMSGLGC; peptide variant) [SEQ ID NO:42] | 64.212 | – | –
C A G L K L A R I G S M S G L G C (CAGLKLARIGSMSGLGC; peptide variant) [SEQ ID NO:24] | −5.848 | – | –
C F G L K L D K I G S M S G L G C (CFGLKLDKIGSMSGLGC; peptide variant) [SEQ ID NO:49] | 21.543 | – | –
C T G L K L D R I G S M S G L G C (CTGLKLDRIGSMSGLGC; peptide variant) [SEQ ID NO:34] | −6.903 | – | –
C F G L K L D R I G S M S G G G C (CFGLKLDRIGSMSGGGC; peptide variant) [SEQ ID NO:64] | −10.145 | – | –
C F G L K L N R I G S M S G L G C (CFGLKLNRIGSMSGLGC; peptide variant) [SEQ ID NO:37] | 17.235 | – | –
C F G L K L D R I G S M S - - - C (CFGLKLDRIGSMSC; peptide variant) [SEQ ID NO:14] | – | 29.9 | –
C F G L K L A R I G S M S G L G C (CFGLKLARIGSMSGLGC; peptide variant) [SEQ ID NO:7] | – | 49.1 | –
C F G L K V D R I G S M S G L G C (CFGLKVDRIGSMSGLGC; peptide variant) [SEQ ID NO:47] | 66.714 | – | –
C F G A K L D R I G S M S G L G C (CFGAKLDRIGSMSGLGC; peptide variant) [SEQ ID NO:40] | 20.154 | – | –
C T G L K L D R I G S A S G L G C (CTGLKLDRIGSASGLGC; peptide variant) [SEQ ID NO:71] | −9.108 | – | –
C F G L K L D R I G S W S G L G C (CFGLKLDRIGSWSGLGC; peptide variant) [SEQ ID NO:65] | 66.450 | – | –
C H F G L K L D R I G S M S - - C (CHFGLKLDRIGSMSC; peptide variant) [SEQ ID NO:11] | – | 25.9 | –
C F G L K L D R V G S M S G L G C (CFGLKLDRVGSMSGLGC; peptide variant) [SEQ ID NO:52] | 27.103 | – | –
C F G L K L D R I G S M S G A G C (CFGLKLDRIGSMSGAGC; peptide variant) [SEQ ID NO:63] | −1.111 | – | –
C F G L K L D R I G S M - - - - C (CFGLKLDRIGSMC; peptide variant) [SEQ ID NO:16] | – | 17.3 | –
C F G L M L D R I G S M S G L G C (CFGLMLDRIGSMSGLGC; peptide variant) [SEQ ID NO:44] | 5.421 | – | –
C F G L K L D R I G S M S G L G C (CFGLKLDRIGSMSGLGC) [SEQ ID NO:2] | 100.000 | 127.4 | activity in cGMP assay (in words): active; cGMP response as percent of CNP (Table 3, cGMP values at 10^-6 M, compared to CNP (CNP 1-22 and CNP 5-22 = 100%), listed as CNP 5-22): 100%; activity in cGMP assay (in words) (listed as SEQ ID NO: 2): as active as the native CNP1-22
C F G L K L D R I G A M - - - - C (CFGLKLDRIGAMC) [SEQ ID NO:17] | – | 3.4 | –
C V G L K L D R I G S M S G L G C (CVGLKLDRIGSMSGLGC; peptide variant) [SEQ ID NO:32] | 5.740 | – | –
C F G L K L D R I G G M S G L G C (CFGLKLDRIGGMSGLGC; peptide variant) [SEQ ID NO:55] | 27.811 | – | –
C F G L K L Q R I G S M S G L G C (CFGLKLQRIGSMSGLGC; peptide variant) [SEQ ID NO:36] | −17.095 | – | –

Sequence | cGMP response as percent of CNP [1] [%] | cGMP response as percent of CNP [2] [%] | also measured
C F G L K L D R I G - - - - - - C (CFGLKLDRIGC; peptide variant) [SEQ ID NO:22] | – | 4.2 | –
C F G L K L A R I G S A S G L G C (CFGLKLARIGSASGLGC; peptide variant) [SEQ ID NO:26] | 5.755 | – | –
C F G L K L D R I G T M S G L G C (CFGLKLDRIGTMSGLGC; peptide variant) [SEQ ID NO:56] | 74.080 | – | –
C F G L K L D R I G S M S G M G C (CFGLKLDRIGSMSGMGC; peptide variant) [SEQ ID NO:62] | 51.286 | – | –
C F G L K L D R I G S Q - - - - C (CFGLKLDRIGSQC; peptide variant) [SEQ ID NO:18] | – | 11.8 | –
C F G L K L D R I G S S S G L G C (CFGLKLDRIGSSSGLGC; peptide variant) [SEQ ID NO:68] | 62.531 | – | –
C A G L K L A R I G S A S G L G C (CAGLKLARIGSASGLGC; peptide variant) [SEQ ID NO:27] | −10.355 | – | –
C F G L K L D R I G S G S G L G C (CFGLKLDRIGSGSGLGC; peptide variant) [SEQ ID NO:69] | 62.117 | – | –
C I G L K L D R I G S M S G L G C (CIGLKLDRIGSMSGLGC; peptide variant) [SEQ ID NO:28] | 13.899 | – | –
C F G L K L D R I G A Q S - - - C (CFGLKLDRIGAQSC; peptide variant) [SEQ ID NO:15] | – | 20.6 | –
C F G L K L D R I G S K S G L G C (CFGLKLDRIGSKSGLGC; peptide variant) [SEQ ID NO:67] | 66.910 | – | –
C W G L K L D R I G S M S G L G C (CWGLKLDRIGSMSGLGC; peptide variant) [SEQ ID NO:31] | −10.834 | – | –
C F G L K L D A I G S M S G L G C (CFGLKLDAIGSMSGLGC; peptide variant) [SEQ ID NO:8] | – | 18.4 | –
C A G L K L D R I G S A S G L G C (CAGLKLDRIGSASGLGC; peptide variant) [SEQ ID NO:25] | 3.933 | – | –
C H F G L K L D R I - - - - - - C (CHFGLKLDRIC; peptide variant) [SEQ ID NO:23] | – | 3.8 | –
C F G L K L I R I G S M S G L G C (CFGLKLIRIGSMSGLGC; peptide variant) [SEQ ID NO:38] | 7.228 | – | –
C F G L K L D R L G S M S G L G C (CFGLKLDRLGSMSGLGC; peptide variant) [SEQ ID NO:51] | 14.177 | – | –
C H F G L K L D R I G A Q S - - C (CHFGLKLDRIGAQSC; peptide variant) [SEQ ID NO:13] | – | 26.5 | –
C L G L K L D R I G S M S G L G C (CLGLKLDRIGSMSGLGC; peptide variant) [SEQ ID NO:29] | 6.255 | – | –
C M G L K L D R I G S M S G L G C (CMGLKLDRIGSMSGLGC; peptide variant) [SEQ ID NO:30] | −1.341 | – | –
C F G L K L D R I G S - - - - - C (CFGLKLDRIGSC; peptide variant) [SEQ ID NO:21] | – | 22.7 | –

Source: patent US7276481B2, “Method and composition for treatment of skeletal dysplasias” (ProChon Biotech Ltd., priority 2001, dated 2007)
